The record followed here is US20180016306A1.

Test [1] concerns the target aRSV-Fab (Fab fragment of anti-RSV monoclonal IgG Palivizumab, Synagis). Nature of the test: affinity chromatography, peptide on aRSV-Fab-immobilised column, linear pH gradient, pH at elution peak top.
Test [2] shares this target. Nature of the test: SPR (Biacore 3000), aRSV-Fab on CM5 chip, peptide flowed, 25 C, pH 7.4, 1:1 fit. In general terms: SPR reads the build-up and loss of mass on a sensor chip optically.
For test [3] the target is unchanged. Nature of the test: affinity chromatography, peptide on aRSV-Fab-immobilised column, linear pH gradient 5.5 to 2.5, pH at elution peak top.
Test [4] has the same target. Nature of the test: affinity chromatography, aRSV-Fab on LB5t-T16H.4d-immobilised cellulose carrier, linear pH gradient 5.0 to 2.4, pH at elution peak top.

B1: LB1t-Wild.1d (protein)
chain: VTIKANLIFANGSTQTAEFKGTFEKATSEAYAYADTLKKDNGEYTVDVADKGYTLNIKFA
In turn, B1 returned a Dissociation pH in test [1] of 2.7 pH.

B2: LB1t-E18D.1d (designed binder)
chain: VTIKANLIFANGSTQTADFKGTFEKATSEAYAYADTLKKDNGEYTVDVADKGYTLNIKFA
For B2, the Dissociation pH in test [1] was 2.95 pH.

B3: LB5t-T16D.1d (designed binder)
chain: GPLGSEQVTIKENIYFEDGTVQDATFKGTFAEATAEAYRYADLLSKEHGKYTADLEDGGYTINIRFAG
The koff is a measure of how fast the partners let go of each other. A low value points to slow dissociation. The kon is the rate constant with which the complex forms. The low end stands for slow association, the high end for fast association. In test [2], B3 yielded a Ka of 1.44e+07 M⁻¹, a koff of 0.0265 s⁻¹ and a kon of 381000 M⁻¹ s⁻¹. This molecule yielded a Dissociation pH in test [3] of 3.6 pH.

B4: LB5t-T18H.1d (designed binder)
chain: GPLGSEQVTIKENIYFEDGTVQTAHFKGTFAEATAEAYRYADLLSKEHGKYTADLEDGGYTINIRFAG
On to B4, for which, in test [2], the Ka was 1.17e+07 M⁻¹, the koff was found to be 0.036 s⁻¹ and the kon was 422000 M⁻¹ s⁻¹. Besides, the Dissociation pH in test [3] was 3.9 pH.

B5: LB5t-A17H.1d (designed binder)
chain: GPLGSEQVTIKENIYFEDGTVQTHTFKGTFAEATAEAYRYADLLSKEHGKYTADLEDGGYTINIRFAG
For the molecule B5, in test [2], the Ka came to 1.08e+06 M⁻¹, the koff was found to be 0.0738 s⁻¹ and the kon was found to be 80000 M⁻¹ s⁻¹. In test [3], this molecule registered a Dissociation pH of 3.9 pH.

B6: LB5t-T18D.1d (designed binder)
chain: GPLGSEQVTIKENIYFEDGTVQTADFKGTFAEATAEAYRYADLLSKEHGKYTADLEDGGYTINIRFAG
In test [2], B6 yielded a Ka of 6.79e+06 M⁻¹, a koff of 0.0467 s⁻¹ and a kon of 317000 M⁻¹ s⁻¹. For the same molecule, in test [3], the Dissociation pH is 3.85 pH.

B7: LB5t-T16L.1d (designed binder)
chain: GPLGSEQVTIKENIYFEDGTVQLATFKGTFAEATAEAYRYADLLSKEHGKYTADLEDGGYTINIRFAG
For the molecule B7, the Dissociation pH in test [1] came to 3.65 pH.

B8: LB5t-T16H.1d (designed binder)
chain: GPLGSEQVTIKENIYFEDGTVQHATFKGTFAEATAEAYRYADLLSKEHGKYTADLEDGGYTINIRFAG
B8: in test [2], the Ka is 2.69e+07 M⁻¹, the koff stood at 0.0159 s⁻¹ and the kon is 428000 M⁻¹ s⁻¹. In addition, the Dissociation pH in test [3] came out at 3.9 pH.

B9: LB5t-T18Q.1d (designed binder)
chain: GPLGSEQVTIKENIYFEDGTVQTAQFKGTFAEATAEAYRYADLLSKEHGKYTADLEDGGYTINIRFAG
As to B9, in test [2], the Ka came to 1.26e+07 M⁻¹, the koff was 0.0296 s⁻¹ and the kon worked out at 373000 M⁻¹ s⁻¹. The Dissociation pH in test [3] is 3.65 pH.

B10: LB5t-T16A.1d (designed binder)
chain: GPLGSEQVTIKENIYFEDGTVQAATFKGTFAEATAEAYRYADLLSKEHGKYTADLEDGGYTINIRFAG
In test [2], B10 displayed a Ka of 1.87e+07 M⁻¹, a koff of 0.0225 s⁻¹ and a kon of 421000 M⁻¹ s⁻¹. For the same molecule, in test [3], the Dissociation pH is 3.6 pH.

B11: LB5t-Q15H.1d (designed binder)
chain: GPLGSEQVTIKENIYFEDGTVHTATFKGTFAEATAEAYRYADLLSKEHGKYTADLEDGGYTINIRFAG
In test [2], B11 displayed a Ka of 6.7e+06 M⁻¹, a koff of 0.0485 s⁻¹ and a kon of 325000 M⁻¹ s⁻¹. In test [3], this molecule had a Dissociation pH of 3.9 pH.

B12: LB5t-T16H.4d (designed binder)
chain: KEETPETPETDSEEQVTIKENIYFEDGTVQHATFKGTFAEATAEAYRYADLLSKEHGKYTADLEDGGYTINIRFAGKEKTPEEPKEQVTIKENIYFEDGTVQHATFKGTFAEATAEAYRYADLLSKEHGKYTADLEDGGYTINIRFAGKEKTPEEPKEQVTIKENIYFEDGTVQHATFKGTFAEATAEAYRYADLLSKEHGKYTADLEDGGYTINIRFAGKEKTPEEPKEQVTIKENIYFEDGTVQHATFKGTFAEATAEAYRYADLLSKEHGKYTADLEDGGYTINIRFAGKKVDEKPEEC
As for B12, in test [4], the Elution pH amounted to 3.66 pH.
